Results: PMC6021343

Molecular target: Transferrin receptor 1 (human (endogenous in HeLa)) (UniProt P02786)
Sequence (P02786 whole entry): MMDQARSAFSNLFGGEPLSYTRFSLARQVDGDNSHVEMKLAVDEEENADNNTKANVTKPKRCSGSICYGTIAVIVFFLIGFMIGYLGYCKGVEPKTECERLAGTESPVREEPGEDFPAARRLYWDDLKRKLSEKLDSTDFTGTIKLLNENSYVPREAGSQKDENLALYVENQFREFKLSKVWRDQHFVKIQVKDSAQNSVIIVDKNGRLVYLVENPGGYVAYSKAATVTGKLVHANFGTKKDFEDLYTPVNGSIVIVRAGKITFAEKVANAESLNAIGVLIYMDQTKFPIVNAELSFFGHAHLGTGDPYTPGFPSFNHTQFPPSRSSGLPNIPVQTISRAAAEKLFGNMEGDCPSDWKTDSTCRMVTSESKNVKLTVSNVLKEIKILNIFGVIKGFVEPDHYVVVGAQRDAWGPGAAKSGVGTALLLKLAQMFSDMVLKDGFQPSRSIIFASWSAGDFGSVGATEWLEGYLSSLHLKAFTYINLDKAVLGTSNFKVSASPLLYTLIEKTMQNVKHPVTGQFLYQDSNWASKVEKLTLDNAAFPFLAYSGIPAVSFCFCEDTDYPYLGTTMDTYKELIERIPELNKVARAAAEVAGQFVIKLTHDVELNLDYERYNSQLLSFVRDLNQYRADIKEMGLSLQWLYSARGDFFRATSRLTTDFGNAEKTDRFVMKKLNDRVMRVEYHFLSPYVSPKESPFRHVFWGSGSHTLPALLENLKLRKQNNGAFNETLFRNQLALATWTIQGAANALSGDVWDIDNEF

human H-ferritin loaded with about 350 iron ions per cage, sequence (P02794 whole entry): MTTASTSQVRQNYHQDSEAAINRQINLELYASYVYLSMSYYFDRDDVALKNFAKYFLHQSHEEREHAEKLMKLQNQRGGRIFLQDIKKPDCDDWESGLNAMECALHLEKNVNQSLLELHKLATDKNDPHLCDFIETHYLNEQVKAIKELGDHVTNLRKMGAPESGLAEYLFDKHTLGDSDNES

iron uptake by HeLa cells (ICP-MS of lysates) after 5 h with H-350 1 μM: decrease of uptake when 20 μM Holo-transferrin was added to the medium: 50%
Substance: human H-ferritin loaded with about 350 iron ions per cage (from UniProt P02794 1-183) (natural protein)
